In paper doi:10.1101/2024.02.13.580058 (bioRxiv, 2024):
Numbering of substitutions follows the chain as printed.

Biological target: BG505 gp120 (HIV-1 isolate BG505 (clade A), UniProt Q2N0S6)
Assay: ELISA; 250 ng BG505 gp120 coated on the plate; monoclonal antibodies from 20 µg/mL in seven 6-fold dilutions, 1 hr, room temperature; detected with alkaline phosphatase anti-human F(ab')2
Conditions: both partners purified

B1: ElsE9 (antibody)
VH: KVQLRESGPSLVKPSQTLSLTCTTSGFSFSDKTVGWVRQAPGKALEWLGSIDTSGTTGYNPGLKSRLSITRDDSKSQVSLSLSSVTTADLATYYCTTVRQQVHKTCPQGWRFGWDCGFHGYGSDDCYEDCIDILSSQTLSAEDTYELHVDAWGQGLLVTVSS
VL: QAVLTQPQSVRGSLGQRVSITCSGSSSNVGNGYVSWYQLIPGSAPRTLMYGDTTRASGVPDRFSGSRSGNTATLTISSLQAEDEADYFCASADGSSLHVAFGSGTTLTVL
notes: source: Expi293 or 293F cells, transient, purified (Protein A Sepharose or Praesto AP)
  binding result: no binding (tested: 20 µg/mL)

B2: Bess1 (antibody)
VH: QVQLRESGPSLVKPSQTLSLTCTVSGISLSDKAVGWVRQAPGKALEWLGSIDAGGSTGYNPGLKSRLSITTDNSKSQVSLSMSGVTTEDSATYYCTTVHQKTLKQKTCPEGYSDDDGCDDSYGCGDDCCCYGGYSDYGGYEYACCSRTYTYEFHVDAWGQGLLVTVSS
VL: QAVLNQPSSVSGSLGQRVSITCSGSSSNVGNGYVSWYQLIPGSAPRTLIYGDTSRASGVPDRFSGSRSGNTATLTISSLQAEDEADYFCASAEDSSSNAVFGSGTTLTVL
notes: also called Bess1_WT; source: Expi293 or 293F cells, transient, purified (Protein A Sepharose or Praesto AP)
  binding result: no binding (tested: 20 µg/mL)

B3: ElsE5 (antibody)
VH: QVQLQESGPSLVKPSQTLSLTCTTSGFSLSDKTVGWVRQAPGKALEWLGSIDTSGRTGYNPGLKSRLDITKDNPKRQVSLSLSSVTTADSATYYCTTVHQQTRKGCPDGWSFGWDCGFHGYGREDCYDDCTDILSSQTLSPTDTYEFHVDAWGQGLLVTVSS
VL: B2 VL with N5T, S54T, T75S, S77T, A85T
notes: as for B1
  binding result: no binding (tested: 20 µg/mL)

B4: ElsE10 (antibody)
VH: KVQLRESGPSLVKPSQTLSLTCTTSGFSLSEKTVGWVRQAPGKPLEWLGTINTSGSGGSNPGLKSRLHITKDNSQSQVSLSLSSVTTADSATYYCTTVHQQTRKRCPDGWSFGWDCGFSGYGSEDCYDDCTDILSSNTLSPTDTYELHVDAWGQGLLVTVSS
VL: B2 VL with N5T, D94G, A99I, S103V
notes: as for B1
  binding result: no binding (tested: 20 µg/mL)

B5: Bess2 (antibody)
VH: KVQLRESGPSLVKPSQTLSLTCTVSGFSLSDKAVGWVRQAPGKALEWLGSIDTGGSTGYNPGLKSRLSITKDNSKSQVSLSVTSVTTEDSTTYYCTTVHQTTKTTKKCPDGYNYDDGCASDLGCGEADCCCYGGYDEYGGYLYSCCSYSYTYEWYVDAWGQGLLVTVSS
VL: B2 VL
notes: as for B1
  binding result: no binding (tested: 20 µg/mL)

B6: ElsE6 (antibody)
VH: KVQLQESGPSLVKPSQTLSLTCTTSGFSLSDNAVGWVRQAPGKALEWLGSIDSGGSTGYNPGLKSRLSITKDNSKSQVSLSVSSVTTADSATYYCTTVHQQTRKSCPAGYTLAKDCGFYGYGSEDCYDDCSDILSSHTLSPTTTYELHVDAWGQGLLVTVSS
VL: B2 VL with N5T, S27T, S54N, A90L, V100I, T108I
notes: as for B1
  binding result: no binding (tested: 20 µg/mL)

B7: ElsE4 (antibody)
VH: QVQLRESGPSLVKPSQTLSLTCTTSGFSLSDKTVGWVRQAPGKALEWLGSRDSSGKTAYNPGLKSRLSITNDNSKSQVSLSLSSVSTADSATYYCTTVHQQTRKSCPDGWSFGWDCGFHGYGVGDCYDDCTDILSSQTLSPTDTYELHIDAWGQGLLVTVSS
VL: B2 VL with N5T, R17T, S25T, S35T, L39V, G42R, Y50F, S95T, A99V
notes: as for B1
  binding result: no binding (tested: 20 µg/mL)

B8: Bess5 (antibody)
VH: QVQLQESGPSLVKPSQTLSLMCAASGFSLSDKTVGWVRQAPGKALEWLGSIDSSGSTGYNPGLKSRLTITKDSSKSQVSLSVSSVTTEDSATYYCTTVHQQTRNKEKTCPGGEDCGIGCCCAGCSATDYGCWDGSSYASYSYIYTYDIHVDAWGQGLLVTVSS
VL: B2 VL
notes: as for B1
  binding result: no binding (tested: 20 µg/mL)

B9: ElsE11 (antibody)
VH: KVQLRESGPSLVKPSQTLSLTCTTSGFSLSDKTVGWVRQAPGKALEWLGSTDTSGNTGYNPGLKSRLSITKDNSKSQVSLSVSSVSTADSATYYCTTVRQQTRKSCPDGWTLAKDCGFYGYGSEDCYDDCTDILSSNTLSPTTTHEFNVDAWGQGLLVTVSS
VL: B2 VL with N5T, V29T, Y33A, A56T, T71I, A85G, A90G, V100I
notes: as for B1
  binding result: no binding (tested: 20 µg/mL)

B10: ElsE3 (antibody)
VH: KVQLQESGPSLVKPSQTLSLTCATSGFSLSDKTVGWVRQAPGKALEWLGSIDTSGNTGYNPLLKFRLSITKDNSKSQVSLSLSSATTADSATYYCTTVHQQTRKSCPDGYSFGYDCGFHGYGSEDCYPDCSDILTSDVVGPIDAYELHVDAWGQGLLVTVSS
VL: B2 VL with N5T, S27N, L39V, S77T, A90S, V100I
notes: as for B1
  binding result: no binding (tested: 20 µg/mL)

B11: Bess3 (antibody)
VH: QVQLRESGPSLVKPSQTLSLTCTVSGFSLSDKAVGWVRQAPGKALEWLGSIDNGENIGYNPGLKSRLSITKDNSKSQVSLSVSSVTTEDSATYYCATVHQTTKTTKQCPDGYNYDDGCASDLGCGEADCCCYGGYDDYGGYLYSCCSYTYTYEWYVDTWGQGLLVTVSS
VL: B2 VL
notes: as for B1
  binding result: no binding (tested: 20 µg/mL)

B12: Bess7 (antibody)
VH: QVQLRESGPSLVKPSQTLSLTCTVSGFSLNDKAVGWVRQAPGRALEWLGSVSTGGSTTYNPGLKPRLSITKDNSKSQISLTVTSVTTEDSATYYCTTVHQTTKTTKECPEGYNWDDGCGSELGCGGADCCCWGGVDEYAGDLYSCCSVAHTYEWYVDAWGQGLLVTVSS
VL: B2 VL
notes: as for B1
  binding result: no binding (tested: 20 µg/mL)

B13: Bess8 (antibody)
VH: B5 VH with K1Q, T53I, T91A, T97I, H99Y, Y135D, G139A, Y141H, Y150H, D157G
VL: B2 VL
notes: as for B1
  binding result: no binding (tested: 20 µg/mL)

B14: ElsE1 (antibody)
VH: KVQLRESGPSLIKPSQTLSLTCTTSIFSLIDKTVGWVRQAPGKSLEWLGSIDTSGNTGYNPGLKSRLHITKDNSRSQVSLSLSSVTTADSATYYCTTVHQQTRKGCPDGWRFGWDCGFHGYGQEDCYEDCIDILSSQTLSPTDAYEFHVDAWGQGLLVTVSS
VL: B2 VL with N5T, S27G, S77T, A85T, D94G, S97N
notes: as for B1
  binding result: no binding (tested: 20 µg/mL)

B15: ElsE8 (antibody)
VH: KVQLQESGPSLVKPSQTLSLTCTTSGFSLSDKGIAWVRQAPGKALEWLGSTDTTGSTNYNPGLKSRVIVTKDNSKSQVSLSLSSVTIADSATYYCTAVVQETRKSCPDGWRFGWDCGFHGYGTEDCYEDCVDILSSETVSSTDRYELHVDAWGQGLLVTVSS
VL: B2 VL with N5S, L39Q, I40F, S54G, A56S, T75S, D94G, S97K, N98H
notes: as for B1
  binding result: no binding (tested: 20 µg/mL)

B16: Bess6 (antibody)
VH: KVQLRESGPSLVKPSQTLSLICTVSGFSLSDKAVGWVRQAPGKALEWLGSIDTAGTTDHHPGLKSRLSITKDNSKNQVSLSLSSVTTEDSATYYCTTVHQPTSKQYSCPDGASVRTGGGWRWLCRGHDCCCVVEYIAYEQTPCTLTRTYEWHIDAWGQGLLVTVSS
VL: B2 VL
notes: as for B1
  binding result: no binding (tested: 20 µg/mL)

B17: ElsE7 (antibody)
VH: QVQLQESGPSLVKPSQTLSLTCTTSGFSLSDNTVGWVRQAPGKALQWLGSITPSGSTNYNPGLKSRLGITKDNSNSQVSLSLTSATAADSATYYCTTVHQQTRKSCPDGWMFGFDCGFHGWGSEDCVDDCSDILSAQTLSPIYTNAYHVDAWGQGLLVTVSS
VL: QAVLTQPSSVSGSLGQTVSITCSGLSNNGENGDVSWYQLIPGSAPHTLMYGDTSRASGVPDRFSGSRSGNTASLTISSLQAEDEADYFCASTGDEMISLLFGSGTTLTVL
notes: as for B1
  binding result: no binding (tested: 20 µg/mL)
